Measured values reported in patent publication US20230227534A1, “METHOD FOR GENERATING VARIANTS OF A PROTEIN” (ECOLE POLYTECHNIQUE FEDERALE DE LAUSANNE (EPFL), priority 2019, published 2023).

Tested on: transducin
Experiment: transducin activation by designed opsin mutants (constitutive and light-induced activity)
Type: biochemical
Details: data not shown

| Molecule | rate of transducin activation (compared to M257Y alone) | constitutive activity compared to WT opsin | constitutive activity as share of the light-induced maximal activity |
| --- | --- | --- | --- |
| M257Y.I305A: opsin (rhodopsin) double mutant, M257Y on TMH6 and I305A on TMH7 (protein, UniProt P02699 1-348, looked up, variant M257Y I305A) Rhodopsin: MNGTEGPNFYVPFSNKTGVVRSPFEAPQYYLAEPWQFSMLAAYMFLLIMLGFPINFLTLYVTVQHKKLRTPLNYILLNLAVADLFMVFGGFTTTLYTSLHGYFVFGPTGCNLEGFFATLGGEIALWSLVVLAIERYVVVCKPMSNFRFGENHAIMGVAFTWVMALACAAPPLVGWSRYIPEGMQCSCGIDYYTPHEETNNESFVIYMFVVHFIIPLIVIFFCYGQLVFTVKEAAAQQQESATTQKAEKEVTRMVIIYVIAFLICWLPYAGVAFYIFTHQGSDFGPIFMTIPAFFAKTSAVYNPVAYIMMNKQFRNCMVTTLCCGKNPLGDDEASTTVSKTETSQVAPA | higher | much larger | – |
| K231E.E232I.T251R: opsin (rhodopsin) ICL3 triple mutant (protein, UniProt P02699 1-348, looked up, variant K231E E232I T251R) Rhodopsin: MNGTEGPNFYVPFSNKTGVVRSPFEAPQYYLAEPWQFSMLAAYMFLLIMLGFPINFLTLYVTVQHKKLRTPLNYILLNLAVADLFMVFGGFTTTLYTSLHGYFVFGPTGCNLEGFFATLGGEIALWSLVVLAIERYVVVCKPMSNFRFGENHAIMGVAFTWVMALACAAPPLVGWSRYIPEGMQCSCGIDYYTPHEETNNESFVIYMFVVHFIIPLIVIFFCYGQLVFTVEIAAAQQQESATTQKAEKEVRRMVIIMVIAFLICWLPYAGVAFYIFTHQGSDFGPIFMTIPAFFAKTSAVYNPVIYIMMNKQFRNCMVTTLCCGKNPLGDDEASTTVSKTETSQVAPA | – | dramatically increased | higher than 40% |
| M257Y: opsin (rhodopsin) mutant, M257Y on TMH6 (protein, UniProt P02699 1-348, looked up, variant M257Y) Rhodopsin: MNGTEGPNFYVPFSNKTGVVRSPFEAPQYYLAEPWQFSMLAAYMFLLIMLGFPINFLTLYVTVQHKKLRTPLNYILLNLAVADLFMVFGGFTTTLYTSLHGYFVFGPTGCNLEGFFATLGGEIALWSLVVLAIERYVVVCKPMSNFRFGENHAIMGVAFTWVMALACAAPPLVGWSRYIPEGMQCSCGIDYYTPHEETNNESFVIYMFVVHFIIPLIVIFFCYGQLVFTVKEAAAQQQESATTQKAEKEVTRMVIIYVIAFLICWLPYAGVAFYIFTHQGSDFGPIFMTIPAFFAKTSAVYNPVIYIMMNKQFRNCMVTTLCCGKNPLGDDEASTTVSKTETSQVAPA | – | much larger | – |
